Experimental data reported in patent US4587340A, “Biopterin analogs” (Burroughs Wellcome Co., priority 1984, dated 1986).

Columns and labels:
[1] = tested on: COCC1CNc2nc(N)[nH]c(=O)c2N1; experiment: Tyrosine hydroxylase cofactor assay; assay type: biochemical
Procedure: Tyrosine hydroxylase was partially purified through a 25-45% ammonium sulfate fraction. […] The enzyme was assayed by a modification of the method of Nagatsu, T., Levitt, M., and Udenfriend, S. (Anal. Biochem. 9, 122, (1964)) where the Dowex chromatography step was replaced by a charcoal extraction.

[2] = tested on: C[C@H](O)[C@H](O)[C@H]1CNc2nc(N)[nH]c(=O)c2N1; experiment: purified protein, by the assay type

Chain of Tyrosine hydroxylase (Homo sapiens) (chain, as listed by the source): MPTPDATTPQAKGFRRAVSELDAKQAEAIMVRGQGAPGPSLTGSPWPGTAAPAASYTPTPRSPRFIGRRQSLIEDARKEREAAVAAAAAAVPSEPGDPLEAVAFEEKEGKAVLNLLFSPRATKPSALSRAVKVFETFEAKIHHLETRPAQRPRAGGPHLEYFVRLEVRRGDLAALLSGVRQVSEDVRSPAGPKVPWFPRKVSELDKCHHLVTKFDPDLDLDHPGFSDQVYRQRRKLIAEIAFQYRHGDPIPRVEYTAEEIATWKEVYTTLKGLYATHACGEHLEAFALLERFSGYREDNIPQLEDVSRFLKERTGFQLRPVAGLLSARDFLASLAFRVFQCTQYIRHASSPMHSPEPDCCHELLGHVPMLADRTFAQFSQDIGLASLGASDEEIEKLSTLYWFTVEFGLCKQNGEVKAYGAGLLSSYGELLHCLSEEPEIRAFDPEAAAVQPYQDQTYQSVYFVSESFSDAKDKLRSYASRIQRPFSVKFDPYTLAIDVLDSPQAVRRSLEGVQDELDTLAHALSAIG

With Tyrosine hydroxylase (Homo sapiens) the Km [1] was 65 µM and the Km [2] was 110 µM.
